Source: publication doi:10.64898/2025.12.23.696152 (bioRxiv, 2025)
Several values for one entry are separate records, joined by “and”; a condition that tells them apart may be missing. Identical values can stand only once.

Columns and labels:
[1] = molecular target: KIF5C(ΔtailΔelbow)-mScarlet-Strep-tag II (human) (UniProt O60282); assay: mass photometry
[2] = molecular target: KIF5C(Δtail)-mScarlet-Strep-tag II (human) (UniProt O60282); assay: mass photometry
[3] = molecular target: Taxol-stabilized microtubules polymerised from pig brain tubulin (pig) (UniProt P02550); assay: TIRF single-molecule motility assay
mass photometry = molecular target: the molecule itself; assay: mass photometry

KIF5C(ΔtailΔelbow)-mScarlet-Strep-tag II (from UniProt O60282 1-914) (domain or fragment)
percent of particles as dimer [1]: 91% | stoichiometry N [1]: 2

KIF5C(Δtail)-mScarlet-Strep-tag II (from UniProt O60282 1-914) (domain or fragment)
percent of particles as dimer [2]: 93% | stoichiometry N [2]: 2

B1: KIF5C-mScarlet-Strep-tag II (human KIF5C, full length) (natural protein)
chain: MADPAECSIKVMCRFRPLNEAEILRGDKFIPKFKGDETVVIGQGKPYVFDRVLPPNTTQEQVYNACAKQIVKDVLEGYNGTIFAYGQTSSGKTHTMEGKLHDPQLMGIIPRIAHDIFDHIYSMDENLEFHIKVSYFEIYLDKIRDLLDVSKTNLAVHEDKNRVPYVKGCTERFVSSPEEVMDVIDEGKANRHVAVTNMNEHSSRSHSIFLINIKQENVETEKKLSGKLYLVDLAGSEKVSKTGAEGAVLDEAKNINKSLSALGNVISALAEGTKTHVPYRDSKMTRILQDSLGGNCRTTIVICCSPSVFNEAETKSTLMFGQRAKTIKNTVSVNLELTAEEWKKKYEKEKEKNKTLKNVIQHLEMELNRWRNGEAVPEDEQISAKDQKNLEPCDNTPIIDNIAPVVAGISTEEKEKYDEEISSLYRQLDDKDDEINQQSQLAEKLKQQMLDQDELLASTRRDYEKIQEELTRLQIENEAAKDEVKEVLQALEELAVNYDQKSQEVEDKTRANEQLTDELAQKTTTLTTTQRELSQLQELSNHQKKRATEILNLLLKDLGEIGGIIGTNDVKTLADVNGVIEEEFTMARLYISKMKSEVKSLVNRSKQLESAQMDSNRKMNASERELAACQLLISQHEAKIKSLTDYMQNMEQKRRQLEESQDSLSEELAKLRAQEKMHEVSFQDKEKEHLTRLQDAEEMKKALEQQMESHREAHQKQLSRLRDEIEEKQKIIDEIRDLNQKLQLEQEKLSSDYNKLKIEDQEREMKLEKLLLLNDKREQAREDLKGLEETVSRELQTLHNLRKLFVQDLTTRVKKSVELDNDDGGGSAAQKQKISFLENNLEQLTKVHKQLVRDNADLRCELPKLEKRLRATAERVKALESALKEAKENAMRDRKRYQQEVDRIKEAVRAKNMARRAHSAQIAKPIRPGHYPASSPTAVHAIRGGGGSSSNSTHYQK
landing rate (molecules/μm/s) [3]: 0.011 and 0.0047 | stoichiometry N (mass photometry): 2 and 4

B2: KIF5C-Strep-tag II (natural protein)
chain: B1 chain
stoichiometry N (mass photometry): 4 and 2

B3: KIF5C(Δelbow)-mScarlet-Strep-tag II (natural protein)
chain: MADPAECSIKVMCRFRPLNEAEILRGDKFIPKFKGDETVVIGQGKPYVFDRVLPPNTTQEQVYNACAKQIVKDVLEGYNGTIFAYGQTSSGKTHTMEGKLHDPQLMGIIPRIAHDIFDHIYSMDENLEFHIKVSYFEIYLDKIRDLLDVSKTNLAVHEDKNRVPYVKGCTERFVSSPEEVMDVIDEGKANRHVAVTNMNEHSSRSHSIFLINIKQENVETEKKLSGKLYLVDLAGSEKVSKTGAEGAVLDEAKNINKSLSALGNVISALAEGTKTHVPYRDSKMTRILQDSLGGNCRTTIVICCSPSVFNEAETKSTLMFGQRAKTIKNTVSVNLELTAEEWKKKYEKEKEKNKTLKNVIQHLEMELNRWRNGEAVPEDEQISAKDQKNLEPCDNTPIIDNIAPVVAGISTEEKEKYDEEISSLYRQLDDKDDEINQQSQLAEKLKQQMLDQDELLASTRRDYEKIQEELTRLQIENEAAKDEVKEVLQALEELAVNYDQKSQEVEDKTRANEQLTDELAQKTTTLTTTQRELSQLQELSNHQKKRATEILNLLLKDLGEIGGIIGTNDVKTLADVNGVIEEEFTMARLYISKMKSEVKSLVNRSKQLESAQMDSNRKMNASERELAACQLLISQHEAKIKSLTDYMQNMEQKRRQLEESQDSLSEELAKLRAQLQDAEEMKKALEQQMESHREAHQKQLSRLRDEIEEKQKIIDEIRDLNQKLQLEQEKLSSDYNKLKIEDQEREMKLEKLLLLNDKREQAREDLKGLEETVSRELQTLHNLRKLFVQDLTTRVKKSVELDNDDGGGSAAQKQKISFLENNLEQLTKVHKQLVRDNADLRCELPKLEKRLRATAERVKALESALKEAKENAMRDRKRYQQEVDRIKEAVRAKNMARRAHSAQIAKPIRPGHYPASSPTAVHAIRGGGGSSSNSTHYQK
stoichiometry N (mass photometry): 4

B4: KIF5C(Δelbow)-Strep-tag II (natural protein)
chain: B3 chain
percent of particles as dimer (mass photometry): 13% | percent of particles as tetramer (mass photometry): 62% | stoichiometry N (mass photometry): 2 and 4
